In patent US20250043022A1 (JIANGSU HENGRUI PHARMACEUTICALS, published 2025):

Legend:
[1] = target: T1, human PSMA on cells (Cho-hPSMA, CHO-K1 cells overexpressing full-length human PSMA) (human, UniProt Q04609 1-750); experiment: cell ELISA (OD450), Cho-hPSMA cells
T1 construct: whole, on cells; also called cell surface PSMA; PSMA-expressing Lncap cells
Procedure: Experiment 2: Cells were cultured and inoculated onto a cell plate using the same method as in Experiment 1. The antibodies were serially diluted, and the antibody solutions were added to the cell plate at 100 μL/well. The plate was incubated at 4° C. for 1 h and then washed. An HRP-Goat Anti-human IgG (H+L) secondary antibody dilution (1:8000) was added to the cell plate at 100 μL/well, and the plate was incubated at 4° C. for 1 h and then washed by centrifugation. After color development with TMB, the reaction was stopped with 0.1 M sulfuric acid, and OD450 values were measured.

[2] = target: T2, human PSMA antigen (R&D SYSTEM, 4234-ZN-010) (human, UniProt Q04609 44-750); experiment: ELISA, plate-bound PSMA antigen
T2 construct: bought antigen
Procedure: To test the ability of the PSMA-targeting humanized antibodies of the present disclosure to bind to PSMA antigen, the ELISA method was used in this test example to measure the binding of the PSMA-targeting humanized antibodies to human PSMA antigen (purchased from R&D SYSTEM, 4234-ZN-010). The specific steps are as follows: A 96-well plate was coated with PSMA antigen at 1 μg/well and placed at 4° C. overnight. After the supernatant was discarded, the plate was blocked with 5% skim milk for 2 h. Different concentrations of humanized antibodies were prepared using 1% BSA. The initial concentration was 10 μg/mL and was serially diluted 4-fold to obtain 12 concentrations. After the blocked 96-well plate was washed twice, the […] was added, and the plate was incubated at 4° C. for 1 h. After four washes, the plate was incubated with Strepidation-HRP secondary antibody (1:10,000) at 4° C. for 1 h. After color development with TMB, the reaction was stopped with 0.1 M sulfuric acid.

T2 sequence (Q04609 44-750 limits assumed): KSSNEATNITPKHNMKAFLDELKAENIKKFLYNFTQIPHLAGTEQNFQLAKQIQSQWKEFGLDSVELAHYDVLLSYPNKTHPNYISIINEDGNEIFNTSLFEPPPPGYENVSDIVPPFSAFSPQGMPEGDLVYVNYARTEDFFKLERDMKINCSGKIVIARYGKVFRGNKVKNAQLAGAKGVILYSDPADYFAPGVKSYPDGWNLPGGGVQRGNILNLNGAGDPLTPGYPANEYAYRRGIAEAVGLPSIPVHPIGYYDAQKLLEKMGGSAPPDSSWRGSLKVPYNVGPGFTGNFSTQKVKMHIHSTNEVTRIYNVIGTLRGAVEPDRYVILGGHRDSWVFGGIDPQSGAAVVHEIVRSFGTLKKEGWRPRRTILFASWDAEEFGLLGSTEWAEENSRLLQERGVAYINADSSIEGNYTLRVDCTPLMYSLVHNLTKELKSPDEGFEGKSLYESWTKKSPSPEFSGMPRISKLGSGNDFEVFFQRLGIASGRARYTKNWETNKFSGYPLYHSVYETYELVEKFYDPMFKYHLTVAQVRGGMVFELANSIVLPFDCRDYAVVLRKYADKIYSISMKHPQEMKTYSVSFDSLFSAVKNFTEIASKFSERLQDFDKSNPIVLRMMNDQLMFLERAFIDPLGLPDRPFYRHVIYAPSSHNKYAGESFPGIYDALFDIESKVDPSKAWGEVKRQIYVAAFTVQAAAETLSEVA
T1 sequence (Q04609 whole entry): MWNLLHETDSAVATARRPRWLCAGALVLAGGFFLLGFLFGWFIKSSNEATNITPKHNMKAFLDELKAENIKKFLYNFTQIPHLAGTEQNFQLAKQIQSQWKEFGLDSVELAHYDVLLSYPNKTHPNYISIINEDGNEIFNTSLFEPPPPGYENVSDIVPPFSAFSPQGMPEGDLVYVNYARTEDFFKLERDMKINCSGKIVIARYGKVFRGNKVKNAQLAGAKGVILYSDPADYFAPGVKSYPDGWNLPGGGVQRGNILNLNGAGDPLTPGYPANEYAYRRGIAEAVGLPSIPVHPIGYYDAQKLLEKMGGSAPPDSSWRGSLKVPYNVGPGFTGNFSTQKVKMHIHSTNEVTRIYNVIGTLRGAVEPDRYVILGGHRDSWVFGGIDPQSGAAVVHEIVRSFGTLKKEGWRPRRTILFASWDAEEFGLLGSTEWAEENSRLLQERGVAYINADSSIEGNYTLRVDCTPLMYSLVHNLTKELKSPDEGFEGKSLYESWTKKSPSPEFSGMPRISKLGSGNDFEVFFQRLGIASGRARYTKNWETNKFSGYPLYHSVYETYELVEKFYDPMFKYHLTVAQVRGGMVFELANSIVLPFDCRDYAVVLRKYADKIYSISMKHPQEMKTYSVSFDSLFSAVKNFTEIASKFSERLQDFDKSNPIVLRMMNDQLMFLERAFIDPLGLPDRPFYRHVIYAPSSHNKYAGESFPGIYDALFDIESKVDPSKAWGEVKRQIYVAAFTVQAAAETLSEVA

EC50 [1] | EC50 [2] | Top (maximum absorbance) [2] | Binder
4.03 µg/mL | 1.06 µg/mL | 0.245 absorbance | hu43H3L2 (antibody, human IgG1, kappa, V domains shown) VH: EVQFVESGGGLVQPGGSLRLSCAASGFTFSNYWMNWLRQAPGKGLEWVAQVRLKSDNYATHYAESVKGRFTISREDAKNSAYLQMNSLRAEDTAVYYCSENYYGPAGPFDFWGQGTTVTVSS VL: DIQMTQSPSSLSASVGDRVTITCKASQNVHTSVAWYQQKPGKSPKLLIYSASNRYSGVPSRFSGSGSGTDFTLTISSLQPEDVATYYCQQYSSYPLTFGQGTKLEIKR
0.0202 µg/mL | 0.0365 µg/mL | 1.67 absorbance | hu46H2L2 (antibody, human IgG1, kappa, V domains shown) VH: EVQLVESGGGLVKPGGSLRLSCAASGFTFSNYGMSWVRQAPGKGLEWVSTIGSGGGYTYYSDSVKGRFTISRDNAKNSLYLQMNSLRAEDTAVYYCVRHPQIGYWGQGTLVTVSS VL: DIQMTQSPSSLSASVGDRVTITCKASQSVGTAVAWYQQKPGKAPKLLIYSASSRYTGVPSRFSGSGSGTDFTLTISSLQPEDFADYFCHQYSSYPLTFGGGTKVEIKR
0.11 µg/mL |  |  | hu71H1L2 (antibody, human IgG1, kappa) heavy: not shown light: DVVVTQTPLSLPVTPGEPASISCRSSQSLVHSYGNTYLHWYLQKPGQSPQLLIYKVSNRFSGVPDRFSGSGSGTDFTLKISRVEAEDVGVYYCSQTTHVPWTFGGGTKVEIKRTVAAPSVFIFPPSDEQLKSGTASVVCLLNNFYPREAKVQWKVDNALQSGNSQESVTEQDSKDSTYSLSSTLTLSKADYEKHKVYACEVTHQGLSSPVTKSFNRGEC
0.0867 µg/mL |  |  | hu71H4L2 (antibody, human IgG1, kappa) heavy: not shown light: DVVVTQTPLSLPVTPGEPASISCRSSQSLVHSYGNTYLHWYLQKPGQSPQLLIYKVSNRFSGVPDRFSGSGSGTDFTLKISRVEAEDVGVYYCSQTTHVPWTFGGGTKVEIKRTVAAPSVFIFPPSDEQLKSGTASVVCLLNNFYPREAKVQWKVDNALQSGNSQESVTEQDSKDSTYSLSSTLTLSKADYEKHKVYACEVTHQGLSSPVTKSFNRGEC
0.0631 µg/mL |  |  | hu71H2L1 (antibody, human IgG1, kappa) heavy: not shown light: DIVMTQTPLSLPVTPGEPASISCRSSQSLVHSYGNTYLHWYLQKPGQSPQLLIYKVSNRFSGVPDRFSGSGSGTDFTLKISRVEAEDVGVYYCSQTTHVPWTFGGGTKVEIKRTVAAPSVFIFPPSDEQLKSGTASVVCLLNNFYPREAKVQWKVDNALQSGNSQESVTEQDSKDSTYSLSSTLTLSKADYEKHKVYACEVTHQGLSSPVTKSFNRGEC
0.116 µg/mL |  |  | hu71H2L2 (antibody, human IgG1, kappa) heavy: not shown light: DVVVTQTPLSLPVTPGEPASISCRSSQSLVHSYGNTYLHWYLQKPGQSPQLLIYKVSNRFSGVPDRFSGSGSGTDFTLKISRVEAEDVGVYYCSQTTHVPWTFGGGTKVEIKRTVAAPSVFIFPPSDEQLKSGTASVVCLLNNFYPREAKVQWKVDNALQSGNSQESVTEQDSKDSTYSLSSTLTLSKADYEKHKVYACEVTHQGLSSPVTKSFNRGEC
0.101 µg/mL |  |  | hu71H4L1 (antibody, human IgG1, kappa) heavy: not shown light: DIVMTQTPLSLPVTPGEPASISCRSSQSLVHSYGNTYLHWYLQKPGQSPQLLIYKVSNRFSGVPDRFSGSGSGTDFTLKISRVEAEDVGVYYCSQTTHVPWTFGGGTKVEIKRTVAAPSVFIFPPSDEQLKSGTASVVCLLNNFYPREAKVQWKVDNALQSGNSQESVTEQDSKDSTYSLSSTLTLSKADYEKHKVYACEVTHQGLSSPVTKSFNRGEC

Second part, the binder before the results:

Binder | EC50 [1] | EC50 [2] | Top (maximum absorbance) [2]
hu31H1L1 (antibody, human IgG1, kappa, V domains shown) VH: EVQLVESGGGLVQPGGSLRLSCAASGFTFSDYYMAWVRQAPGKGLEWVASINYDGSSTYYLDSLKSRFTISRDNAKNSLYLQMNSLRAEDTAVYYCAGSDGYWAWFAYWGQGTLVTVSS VL: DIQMTQSPSSLSASVGDRVTITCRASGNIHNYLAWYQQKPGKAPKLLIYNAETLADGVPSRFSGSGSGTDFTLTISSLQPEDFATYYCQHFWSTPPTFGGGTKVEIKR | 0.142 µg/mL | 0.0864 µg/mL | 1.76 absorbance
hu27H1L2 (antibody, human IgG1, kappa) heavy: not shown light: EIVLTQSPDFQSVTPKEKVTITCSASSSVSYMYWYQQKPDQSPKPWIYRTSNLASGVPSRFSGSGSGTDYTLTINSLEAEDAATYYCQQYHSYPLTFGQGTKLEIKRTVAAPSVFIFPPSDEQLKSGTASVVCLLNNFYPREAKVQWKVDNALQSGNSQESVTEQDSKDSTYSLSSTLTLSKADYEKHKVYACEVTHQGLSSPVTKSFNRGEC | 1.65 µg/mL |  | 
hu27H1L5 (antibody, human IgG1, kappa) heavy: not shown light: EIVLTQSPDFQSVTPKEKVTIQCSASSSVSYMYWYQQKPDQSPKPWIYRTSNLASGVPSRFSGSGSGTDYTLTINSLEAEDAATYYCQQYHSYPLTFGQGTKLEIKRTVAAPSVFIFPPSDEQLKSGTASVVCLLNNFYPREAKVQWKVDNALQSGNSQESVTEQDSKDSTYSLSSTLTLSKADYEKHKVYACEVTHQGLSSPVTKSFNRGEC | 2.39 µg/mL |  | 
hu27H1L4 (antibody, human IgG1, kappa) heavy: not shown light: EIVLTQSPDFQSVTPKEKVTIQCSASSSVSYMYWYQQKPDQSPKPWIYRTSNLASGVPSRFSGSGSGTDFTLTINSLEAEDAATYYCQQYHSYPLTFGQGTKLEIKRTVAAPSVFIFPPSDEQLKSGTASVVCLLNNFYPREAKVQWKVDNALQSGNSQESVTEQDSKDSTYSLSSTLTLSKADYEKHKVYACEVTHQGLSSPVTKSFNRGEC | 1.73 µg/mL |  | 
hu27H1L1 (antibody, human IgG1, kappa) heavy: not shown light: EIVLTQSPDFQSVTPKEKVTITCSASSSVSYMYWYQQKPDQSPKPWIYRTSNLASGVPSRFSGSGSGTDFTLTINSLEAEDAATYYCQQYHSYPLTFGQGTKLEIKRTVAAPSVFIFPPSDEQLKSGTASVVCLLNNFYPREAKVQWKVDNALQSGNSQESVTEQDSKDSTYSLSSTLTLSKADYEKHKVYACEVTHQGLSSPVTKSFNRGEC | 1.17 µg/mL |  | 
hu27H1L3 (antibody, human IgG1, kappa) heavy: not shown light: QIVLTQSPDFQSVTPKEKVTITCSASSSVSYMYWYQQKPDQSPKPWIYRTSNLASGVPSRFSGSGSGTDYTLTINSLEAEDAATYYCQQYHSYPLTFGQGTKLEIKRTVAAPSVFIFPPSDEQLKSGTASVVCLLNNFYPREAKVQWKVDNALQSGNSQESVTEQDSKDSTYSLSSTLTLSKADYEKHKVYACEVTHQGLSSPVTKSFNRGEC | 1.4 µg/mL |  | 
hu15H4L2 (antibody, human IgG1, kappa, V domains shown) VH: EFQLVQSGAEVKKPGASVKVSCKASGYSFTDHNMNWVRQAPGQRLEWMGLINPNYGTADYNQKFKGRVTLTVDQSATTAYMELSSLRSEDTAVYYCARGSSLFAYWGQGTLVTVSS VL: DIQMTQSPSSLSASVGDRVTITCKASQGVDTAVAWYQQKPGKSPKLLIYWASTRHTGVPDRFSGSGSGTDFTLTISSLQPEDVATYYCQQYSRYPLTFGQGTKLEIKR | 0.0795 µg/mL | 0.0421 µg/mL | 2.23 absorbance
hu2H1L1 (antibody, human IgG1, kappa, V domains shown) VH: EVQLVESGGGLVQPGGSLRLSCAASGFTFSDYYMAWVRQAPGKGLEWVANINFDGSSTYYLDSLKSRFTISRDNAKNSLYLQMNSLRAEDTAVYYCARDLDGYYGYFDVWGQGTTVTVSS VL: EIVLTQSPDFQSVTPKEKVTITCSASSSVSHMYWYQQKPDQSPKLLIYRTSNLASGVPSRFSGSGSGTDFTLTINSLEAEDAATYYCQQYHSYPLMFGQGTKLEIKR |  | 0.0354 µg/mL | 0.975 absorbance
hu27H1L6 (antibody, human IgG1, kappa) heavy: not shown light: QIVLTQSPDFQSVTPKEKVTIQCSASSSVSYMYWYQQKPDQSPKPWIYRTSNLASGVPSRFSGSGSGTDYTLTINSLEAEDAATYYCQQYHSYPLTFGQGTKLEIKRTVAAPSVFIFPPSDEQLKSGTASVVCLLNNFYPREAKVQWKVDNALQSGNSQESVTEQDSKDSTYSLSSTLTLSKADYEKHKVYACEVTHQGLSSPVTKSFNRGEC | 2.77 µg/mL | 0.398 µg/mL | 0.553 absorbance
Chi31 (antibody, human IgG1, kappa, V domains shown) VH: EVKLVESEGGLVQPGSSKKLSCTASGFTFSDYYMAWVRQVPEKGLEWVASINYDGSSTYYLDSLKSRFIISRDNAKNNLYLQMNSLKSEDTATYYCAGSDGYWAWFAYWGQGTLVTVSA VL: DIQMTQSPASLSASVGEAVTITCRASGNIHNYLAWYQQKQGKSPQLLVYNAETLADGVPSRFSGSGSGTQFSLKINSLRPEDFGSYYCQHFWSTPPTFGGGTKLEIKR | 0.141 µg/mL |  | 
hu41H2L2 (antibody, human IgG1, kappa, V domains shown) VH: EVQLVQSGAEVKKPGASVKVSCKASGYTFTSYGISWVRQAPGQGLEWMGEIFPRRGNTYYNEKFRGRVTLTADKSTSTAYMELRSLRSDDTAVYYCARVFDGYYNYAMDYWGQGTTVTVSS VL: DIQMTQSPSSLSASVGDRVTITCRASQDIGSSLNWLQQKPGKAIKRLIYATSSLDSGVPSRFSGSRSGTDYTLTISSLQPEDFATYYCLQYASSPYTFGGGTKVEIKR | 1.1 µg/mL | 0.61 µg/mL | 0.421 absorbance
chi73 (antibody, human IgG1, kappa, V domains shown) VH: QVQLQQSGPELVKPGASVKISCKASGYAFSTSWMNWVKERPGKGLEWIGRIYPGDGDTKYNGKFQGKATLTADKSSSTAYMKLSSLTSEDSAVYFCVRSIYYLYYFDYWGQGTTLTVSS VL: DIQMTQPTSSLSASLGDRVTISCSTSQDIYNNLSWFQQKPDGTVRLLIYYTSSLHSGVPSRFSGSGSGTDYSLTISNLEPEDIATYYCQQYNNLPFTFGGGTNLEIRR |  | 0.029 µg/mL | 2.08 absorbance
